From PMC1933581 come the findings set out here.

In data set [1] the test system is Rev (C64) (HIV-1, SBBC subject C64). In words: EMSA. The note with it: 10 mM HEPES/KOH pH 7.6, 150 mM KCl, 2 mM MgCl2, 0.5 mM EGTA, 1 mM DTT, 20% glycerol, 3.2 ug E. coli tRNA in 10 ul; excess RNA, protein 0-0.50 uM; 10 min on …. A general note: In EMSA bound probe runs differently from free probe, usually more slowly.
Data set [2] concerns Rev (D36) (HIV-1, SBBC subject D36). In words: EMSA. The note with it: 10 mM HEPES/KOH pH 7.6, 150 mM KCl, 2 mM MgCl2, 0.5 mM EGTA, 1 mM DTT, 20% glycerol, 3.2 ug E. coli tRNA in 10 ul; excess RNA, protein 0-0.50 uM; 10 min on ….

As for RRE riboprobe, the binding signal (% reduction vs NL4-3 Rev) in data set [1] and in data set [2] was 90 each time.
